{"source": "paper PMC7194074", "about": "“A Trichome-Specific, Plastid-Localized Tanacetum cinerariifolium Nudix Protein Hydrolyzes the Natural Pyrethrin Pesticide Biosynthetic Intermediate trans-Chrysanthemyl Diphosphate” (Frontiers in Plant Science, 2020)", "system": "CC(C)=C[C@@H]1[C@@H](COP(=O)(O)OP(=O)(O)O)C1(C)C", "experiment": "purified protein", "settings": "100 mM Tris pH 7.5, 5 mM MgCl2, CPP 0.1 to 5 μM, 5 min, 1 μM enzyme stated for the general reactions", "data": [{"substance": "TcNudix1 (Tanacetum cinerariifolium)", "values": [{"measurement": "Km", "value": "0.137 ± 0.05", "unit": "µM"}]}]}
